Measured values published in the supplement of paper PMC10065799, “High-throughput profiling of sequence recognition by tyrosine kinases and SH2 domains using bacterial peptide display” (eLife, 2023).

Legend:
[1] = molecular target: c-Src SH2; test: SH2 binding enrichment of the phosphorylated peptide, bacterial display (enrichment ratio); higher = better substrate or ligand; peptides without Tyr show the background
[2] = molecular target: Grb2 SH2 (UniProt P62993); test: as above
[3] = molecular target: SHP2-C SH2; test: as above
[4] = molecular target: MERTK (UniProt Q12866); test: phosphorylation enrichment, bacterial display (enrichment ratio); higher = better substrate or ligand; peptides without Tyr show the background
[5] = molecular target: Jak2 (UniProt O60674); test: as above
[6] = tested on: c-Abl (mouse); test: as above
[7] = molecular target: FGFR3 (UniProt P22607); test: as above
[8] = molecular target: Hck (UniProt P08631); test: as above
[9] = tested on: AncSZ; test: as above
[10] = tested on: c-Src; test: as above
[11] = molecular target: Fyn (UniProt P06241); test: as above
[12] = molecular target: EPHB1 (UniProt P54762); test: as above
[13] = molecular target: EPHB2 (UniProt P29323); test: as above
[14] = molecular target: FGFR1 (UniProt P11362); test: as above
[15] = tested on: Fer (mouse); test: as above
[16] = molecular target: Fes (UniProt P07332); test: as above
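Throughout, for SH2 binding enrichment of the phosphorylated peptide, bacterial display: peptide library displayed on the E. coli surface as eCPX fusions, selected cells deep-sequenced, score is each peptide's frequency after selection divided by its frequency in the input.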
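Throughout, for phosphorylation enrichment, bacterial display: 11-residue human phosphosite peptides and single-mutation variants displayed on the E. coli surface, counted by deep sequencing, each peptide's frequency after selection divided by its frequency in the unselected input library; frequency after pTyr selection over input frequency; kinase dosed for 20-30% of maximal phosphorylation in three min.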

Sequence of FGFR1 (P11362 whole entry, looked up): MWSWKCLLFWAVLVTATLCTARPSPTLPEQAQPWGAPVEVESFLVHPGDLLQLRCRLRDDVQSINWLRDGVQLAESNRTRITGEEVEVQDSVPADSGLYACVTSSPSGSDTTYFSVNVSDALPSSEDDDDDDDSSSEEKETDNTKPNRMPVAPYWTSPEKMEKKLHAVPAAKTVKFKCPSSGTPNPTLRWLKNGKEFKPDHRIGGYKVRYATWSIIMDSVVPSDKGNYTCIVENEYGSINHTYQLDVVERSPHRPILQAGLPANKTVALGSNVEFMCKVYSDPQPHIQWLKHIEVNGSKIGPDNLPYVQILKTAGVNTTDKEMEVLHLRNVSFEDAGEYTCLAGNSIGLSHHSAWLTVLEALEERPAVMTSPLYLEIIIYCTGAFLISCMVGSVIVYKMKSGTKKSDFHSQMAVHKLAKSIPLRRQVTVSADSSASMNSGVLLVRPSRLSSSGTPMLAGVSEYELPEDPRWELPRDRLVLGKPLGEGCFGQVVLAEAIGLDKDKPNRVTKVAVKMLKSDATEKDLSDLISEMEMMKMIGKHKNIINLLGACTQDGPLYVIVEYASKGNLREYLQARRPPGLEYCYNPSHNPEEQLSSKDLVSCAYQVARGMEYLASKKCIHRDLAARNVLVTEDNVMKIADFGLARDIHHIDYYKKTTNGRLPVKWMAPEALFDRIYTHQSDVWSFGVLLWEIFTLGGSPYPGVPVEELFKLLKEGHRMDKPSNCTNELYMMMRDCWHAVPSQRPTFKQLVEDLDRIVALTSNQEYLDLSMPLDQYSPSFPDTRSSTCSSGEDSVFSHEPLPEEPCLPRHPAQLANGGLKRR
Sequence of Fyn (P06241 whole entry, looked up): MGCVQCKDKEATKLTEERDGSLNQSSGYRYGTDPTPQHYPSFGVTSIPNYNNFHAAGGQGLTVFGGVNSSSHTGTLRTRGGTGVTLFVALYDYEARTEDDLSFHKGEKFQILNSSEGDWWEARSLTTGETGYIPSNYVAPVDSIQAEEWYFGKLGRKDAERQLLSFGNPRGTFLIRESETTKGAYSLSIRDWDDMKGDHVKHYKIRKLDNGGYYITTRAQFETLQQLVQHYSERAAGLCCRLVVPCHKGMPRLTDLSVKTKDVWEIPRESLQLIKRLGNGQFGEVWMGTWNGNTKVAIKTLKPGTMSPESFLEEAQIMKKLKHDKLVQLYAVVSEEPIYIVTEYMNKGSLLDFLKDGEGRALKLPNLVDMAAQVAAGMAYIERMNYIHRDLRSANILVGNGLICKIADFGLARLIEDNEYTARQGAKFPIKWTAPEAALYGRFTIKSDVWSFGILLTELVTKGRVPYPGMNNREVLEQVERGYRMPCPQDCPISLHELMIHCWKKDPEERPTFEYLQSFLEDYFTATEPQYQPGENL
Sequence of EPHB1 (P54762 whole entry, looked up): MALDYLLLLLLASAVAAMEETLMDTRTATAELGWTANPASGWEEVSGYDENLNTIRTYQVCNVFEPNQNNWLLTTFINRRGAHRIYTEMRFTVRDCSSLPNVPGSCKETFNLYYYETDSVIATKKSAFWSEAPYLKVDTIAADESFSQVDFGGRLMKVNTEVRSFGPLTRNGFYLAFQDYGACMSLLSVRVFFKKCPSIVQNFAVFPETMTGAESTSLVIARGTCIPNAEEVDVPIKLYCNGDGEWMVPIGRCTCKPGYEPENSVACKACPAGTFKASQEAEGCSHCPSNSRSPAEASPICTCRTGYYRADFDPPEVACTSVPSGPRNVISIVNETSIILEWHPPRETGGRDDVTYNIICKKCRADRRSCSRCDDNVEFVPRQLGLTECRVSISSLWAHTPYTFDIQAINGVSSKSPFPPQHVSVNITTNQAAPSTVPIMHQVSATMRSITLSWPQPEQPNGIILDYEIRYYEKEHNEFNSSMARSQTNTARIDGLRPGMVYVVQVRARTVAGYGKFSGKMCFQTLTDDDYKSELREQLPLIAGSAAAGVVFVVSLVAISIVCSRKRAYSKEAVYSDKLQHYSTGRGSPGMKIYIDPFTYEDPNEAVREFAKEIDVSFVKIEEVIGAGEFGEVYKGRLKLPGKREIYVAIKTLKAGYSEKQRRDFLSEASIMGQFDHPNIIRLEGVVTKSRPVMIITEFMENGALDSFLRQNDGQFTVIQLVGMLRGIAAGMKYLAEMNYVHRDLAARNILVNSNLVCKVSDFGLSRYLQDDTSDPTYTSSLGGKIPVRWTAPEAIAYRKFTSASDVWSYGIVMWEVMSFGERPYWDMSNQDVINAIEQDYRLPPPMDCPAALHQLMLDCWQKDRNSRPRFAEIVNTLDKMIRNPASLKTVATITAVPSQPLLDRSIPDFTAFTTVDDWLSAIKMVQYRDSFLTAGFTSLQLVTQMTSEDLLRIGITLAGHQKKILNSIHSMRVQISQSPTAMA
Sequence of Jak2 (O60674 whole entry, looked up): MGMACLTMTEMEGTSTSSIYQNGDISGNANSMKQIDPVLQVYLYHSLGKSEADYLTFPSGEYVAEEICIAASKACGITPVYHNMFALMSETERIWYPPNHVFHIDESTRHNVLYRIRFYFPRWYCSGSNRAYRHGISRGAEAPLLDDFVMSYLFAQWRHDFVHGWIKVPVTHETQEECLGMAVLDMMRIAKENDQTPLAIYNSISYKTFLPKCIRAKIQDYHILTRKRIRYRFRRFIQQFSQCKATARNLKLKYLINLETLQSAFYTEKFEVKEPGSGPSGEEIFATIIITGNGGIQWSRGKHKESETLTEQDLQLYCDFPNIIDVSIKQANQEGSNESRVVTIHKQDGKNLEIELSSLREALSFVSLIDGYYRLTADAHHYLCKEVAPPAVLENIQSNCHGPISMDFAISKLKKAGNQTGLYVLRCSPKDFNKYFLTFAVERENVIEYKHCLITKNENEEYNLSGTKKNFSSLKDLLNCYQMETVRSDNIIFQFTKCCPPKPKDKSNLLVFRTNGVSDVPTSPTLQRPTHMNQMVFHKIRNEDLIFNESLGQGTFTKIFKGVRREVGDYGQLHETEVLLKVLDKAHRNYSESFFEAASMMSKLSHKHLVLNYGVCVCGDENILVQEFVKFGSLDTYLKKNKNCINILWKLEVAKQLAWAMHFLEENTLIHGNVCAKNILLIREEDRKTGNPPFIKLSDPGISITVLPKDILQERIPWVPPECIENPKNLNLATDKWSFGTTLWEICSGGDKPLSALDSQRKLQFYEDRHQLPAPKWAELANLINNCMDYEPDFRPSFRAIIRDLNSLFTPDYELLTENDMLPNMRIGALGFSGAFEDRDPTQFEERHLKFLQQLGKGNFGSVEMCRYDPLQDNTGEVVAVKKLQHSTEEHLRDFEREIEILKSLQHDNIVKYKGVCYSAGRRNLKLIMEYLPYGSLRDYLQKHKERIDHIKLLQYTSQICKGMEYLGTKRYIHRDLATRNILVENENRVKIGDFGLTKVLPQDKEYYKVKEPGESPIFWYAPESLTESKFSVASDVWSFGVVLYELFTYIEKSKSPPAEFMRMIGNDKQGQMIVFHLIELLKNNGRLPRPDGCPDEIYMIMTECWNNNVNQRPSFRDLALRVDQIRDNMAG
Sequence of MERTK (Q12866 whole entry, looked up): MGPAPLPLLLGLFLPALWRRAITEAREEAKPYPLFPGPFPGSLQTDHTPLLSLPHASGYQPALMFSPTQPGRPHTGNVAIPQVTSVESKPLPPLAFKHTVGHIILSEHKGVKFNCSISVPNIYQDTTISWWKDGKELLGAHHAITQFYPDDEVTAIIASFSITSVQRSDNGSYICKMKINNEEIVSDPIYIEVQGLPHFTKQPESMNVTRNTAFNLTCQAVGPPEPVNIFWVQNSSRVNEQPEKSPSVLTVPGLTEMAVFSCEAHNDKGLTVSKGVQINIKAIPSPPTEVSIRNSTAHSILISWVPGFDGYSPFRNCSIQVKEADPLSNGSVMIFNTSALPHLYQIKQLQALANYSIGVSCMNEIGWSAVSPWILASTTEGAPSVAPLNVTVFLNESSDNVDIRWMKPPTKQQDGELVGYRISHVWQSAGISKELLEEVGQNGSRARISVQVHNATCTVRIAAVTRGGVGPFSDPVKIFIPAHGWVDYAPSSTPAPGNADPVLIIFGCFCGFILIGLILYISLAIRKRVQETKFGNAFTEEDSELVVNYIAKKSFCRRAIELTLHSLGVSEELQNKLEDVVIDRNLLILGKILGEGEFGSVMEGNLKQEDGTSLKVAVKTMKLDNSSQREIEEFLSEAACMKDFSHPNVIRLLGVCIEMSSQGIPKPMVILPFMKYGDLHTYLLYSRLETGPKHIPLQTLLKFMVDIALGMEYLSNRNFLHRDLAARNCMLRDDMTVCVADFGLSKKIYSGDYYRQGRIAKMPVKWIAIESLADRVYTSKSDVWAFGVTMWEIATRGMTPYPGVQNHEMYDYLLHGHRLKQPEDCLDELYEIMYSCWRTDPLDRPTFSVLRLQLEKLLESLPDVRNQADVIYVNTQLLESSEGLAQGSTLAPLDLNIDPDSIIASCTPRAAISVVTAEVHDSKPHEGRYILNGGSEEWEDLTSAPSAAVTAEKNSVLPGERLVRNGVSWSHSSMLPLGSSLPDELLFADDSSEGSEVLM
Sequence of Hck (P08631 whole entry, looked up): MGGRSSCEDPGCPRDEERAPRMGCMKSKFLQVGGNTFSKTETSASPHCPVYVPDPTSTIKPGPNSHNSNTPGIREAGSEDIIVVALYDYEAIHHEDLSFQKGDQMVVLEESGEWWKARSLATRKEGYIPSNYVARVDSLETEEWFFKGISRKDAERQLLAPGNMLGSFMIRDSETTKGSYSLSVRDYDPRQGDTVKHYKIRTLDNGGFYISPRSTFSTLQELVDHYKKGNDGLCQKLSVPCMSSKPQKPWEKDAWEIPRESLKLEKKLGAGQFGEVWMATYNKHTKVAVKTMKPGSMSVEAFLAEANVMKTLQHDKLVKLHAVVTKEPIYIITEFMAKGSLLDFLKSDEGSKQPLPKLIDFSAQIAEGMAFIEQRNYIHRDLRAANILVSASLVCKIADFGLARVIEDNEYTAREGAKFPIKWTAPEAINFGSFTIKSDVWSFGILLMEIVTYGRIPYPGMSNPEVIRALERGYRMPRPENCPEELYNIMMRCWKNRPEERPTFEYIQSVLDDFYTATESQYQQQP

Row | Sequence | SH2 binding enrichment [1] | SH2 binding enrichment [2] | SH2 binding enrichment [3] | phosphorylation enrichment [4] | phosphorylation enrichment [5] | phosphorylation enrichment [6] | phosphorylation enrichment [7] | phosphorylation enrichment [8] | phosphorylation enrichment [9] | phosphorylation enrichment [10] | phosphorylation enrichment [11] | phosphorylation enrichment [12] | phosphorylation enrichment [13] | phosphorylation enrichment [14] | phosphorylation enrichment [15] | phosphorylation enrichment [16]
1 | LLREWYMIISR [HUWE1_Y4066] | 1.37 | 1.71 | 1.5 | 0.433 | 1.3 | 0.931 | 1.1 | 0.441 | 1.35 | 0.419 | 0.588 | 0.703 | 0.792 | 0.708 | 0.723 | 1.45
2 | LNNIIYRVERA [CUX2_Y1470] | 0.558 | 1.13 | 1.62 | 0.43 | 1.22 | 0.864 | 0.816 | 0.738 | 1.48 | 1.33 | 0.936 | 0.87 | 0.958 | 0.825 | 0.748 | 1.34
3 | LPPREYVVVPS [CAPN1_Y494_G492R] | 1.17 | 0.918 | 1.03 | 0.631 | 1.04 | 0.726 | 2.46 | 1.73 | 2.29 | 0.48 | 1.41 | 3.78 | 4.02 | 2.83 | 1.73 | 2.17
4 | LQPNNYQFCGG [CSF1R_Y969] | 1.44 | 1.24 | 0.889 | 1.6 | 1.24 | 2.74 | 1.09 | 0.86 | 1.49 | 0.632 | 1.14 | 4.08 | 2.2 | 1.04 | 0.627 | 1.18
5 | LRFDVYGGENE [STOX1_Y610_E608D_YF] | 0.523 | 0.943 | 0.798 | 0.405 | 1.22 | 0.793 | 0.629 | 0.498 | 1.09 | 0.528 | 0.539 | 0.596 | 0.644 | 0.509 | 0.594 | 1.29
6 | LSDGPYSNSYE [EPOR_Y485_P488S] | 1.56 | 0.557 | 0.523 | 0.622 | 1.38 | 0.762 | 1.02 | 0.664 | 1.24 | 0.968 | 0.59 | 0.944 | 0.67 | 0.862 | 0.604 | 1.2
7 | LSSNLYYRWLT [CNGA3_Y168_P163L] | 0.795 | 1.29 | 1.27 | 20.4 | 13.4 | 12.6 | 17.8 | 15.2 | 6.06 | 6.55 | 6.81 | 7.53 | 8.33 | 21.5 | 8.47 | 3.38
8 | LTDRGYSFVTT [ACTA1_Y200_E197D] | 10 | 0.988 | 6.52 | 0.846 | 1.88 | 1.17 | 0.756 | 0.677 | 1.38 | 0.6 | 0.8 | 0.852 | 1.04 | 0.772 | 0.653 | 1.23
9 | LTERGYSFTTK [ACTG1_Y198_T203K] | 0.454 | 0.679 | 0.653 | 1.79 | 1.65 | 0.995 | 1.54 | 0.911 | 3 | 0.982 | 1.66 | 1.8 | 2.03 | 1.96 | 2.1 | 2.1
10 | LTQRTYMSENA [GPAA1_Y49] | 0.422 | 0.783 | 0.801 | 0.47 | 0.65 | 0.488 | 0.485 | 0.455 | 0.636 | 0.429 | 0.376 | 0.364 | 0.528 | 0.452 | 0.429 | 0.613
11 | LYEDRYLLGPS [ASS1_Y87_T91P] | 0.626 | 0.69 | 0.662 | 0.899 | 0.812 | 0.683 | 1.16 | 4.13 | 1.2 | 1.5 | 2.3 | 3.52 | 1.4 | 1.2 | 5.42 | 1.67
12 | LYSNAYLSDLA [ALDH1A1_Y119_N121S] | 1.11 | 0.94 | 0.782 | 8.43 | 0.945 | 0.618 | 1.23 | 3.5 | 1.68 | 1.96 | 3.58 | 2.99 | 1.45 | 1.14 | 7.25 | 1.01
13 | MCDSHYLESRS [CLK1_Y56] | 0.675 | 1.04 | 0.719 | 0.426 | 0.618 | 0.493 | 0.718 | 0.35 | 0.578 | 0.424 | 0.449 | 0.495 | 0.535 | 0.509 | 0.473 | 0.81
14 | MDQAEYQAKIR [DHX58_Y518] | 0.612 | 0.754 | 1.04 | 0.446 | 0.659 | 0.729 | 0.412 | 0.424 | 0.616 | 0.43 | 0.477 | 0.299 | 0.476 | 0.441 | 0.433 | 0.708
15 | MENFIYESMRF [CYP19A1_Y361_YF] | 0.562 | 0.772 | 0.677 | 3.74 | 0.626 | 2.71 | 0.577 | 7.67 | 1.3 | 6.6 | 8.61 | 4.14 | 2.63 | 0.551 | 14.1 | 5.1

Further lines, with some results ahead:

Row | SH2 binding enrichment [1] | SH2 binding enrichment [2] | SH2 binding enrichment [3] | Sequence | phosphorylation enrichment [4] | phosphorylation enrichment [5] | phosphorylation enrichment [6] | phosphorylation enrichment [7] | phosphorylation enrichment [8] | phosphorylation enrichment [9] | phosphorylation enrichment [10] | phosphorylation enrichment [11] | phosphorylation enrichment [12] | phosphorylation enrichment [13] | phosphorylation enrichment [14] | phosphorylation enrichment [15] | phosphorylation enrichment [16]
16 | 0.511 | 0.863 | 0.628 | LITSVYGCSRQ [TMPRSS6_Y290] | 0.545 | 1.24 | 1.27 | 1.21 | 1.83 | 1.39 | 1.7 | 1.57 | 0.989 | 1 | 1.04 | 0.716 | 1.25
17 | 1.02 | 1.06 | 0.808 | LITTLYIGFLG [KCNQ1_Y267] | 0.989 | 2.33 | 2.22 | 1.89 | 1.51 | 2.41 | 3.29 | 2.11 | 1.19 | 1.12 | 0.712 | 0.929 | 2.46
18 | 1.44 | 1.63 | 1.39 | LLKMMYLMLDN [STAT1_Y203_K201M] | 0.597 | 0.991 | 1.07 | 0.902 | 0.644 | 1.08 | 0.611 | 0.584 | 0.946 | 0.693 | 0.874 | 0.603 | 1.51
19 | 0.39 | 0.797 | 0.63 | LNLDTYQKRLR [PLA2G2D_Y126_R121L] | 0.511 | 0.389 | 0.502 | 0.518 | 0.518 | 0.517 | 0.442 | 0.672 | 0.44 | 0.42 | 0.69 | 0.336 | 0.613
20 | 1.42 | 1.76 | 1.49 | LPHVIYCRLWC [SMAD2_Y128_R133C] | 2.98 | 1.95 | 4.33 | 0.645 | 6.12 | 1.12 | 4.81 | 5.86 | 7.33 | 3.17 | 0.557 | 0.851 | 1.35
21 | 0.477 | 0.786 | 0.591 | LRFKQYLRNPP [SHC1_Y315] | 0.564 | 1.17 | 0.847 | 0.767 | 1.04 | 0.957 | 0.642 | 0.551 | 0.562 | 1.8 | 0.865 | 0.623 | 1.11
22 | 1.26 | 1.46 | 1.32 | LRWREYQRQDY [PRKRIP1_Y90_R87W] | 0.409 | 0.997 | 0.737 | 0.585 | 0.453 | 1.12 | 0.486 | 0.574 | 0.439 | 0.761 | 0.626 | 0.376 | 0.957
23 | 0.595 | 1.45 | 0.99 | LSGVIYVILWK [PMP22_Y153_R157W] | 0.666 | 1.55 | 0.996 | 0.652 | 0.538 | 1.44 | 0.752 | 0.304 | 0.809 | 0.538 | 0.358 | 0.583 | 1.95
24 | 0.413 | 0.912 | 1.08 | LSKDLYLISQM [LARP4_Y141] | 0.703 | 1.28 | 1.06 | 1.41 | 0.836 | 1.78 | 0.639 | 0.828 | 1.59 | 1.29 | 0.933 | 0.918 | 1.63
25 | 0.58 | 0.959 | 0.715 | LSPPVYLTNEW [NRK_Y885_I880L] | 0.616 | 1.54 | 1.21 | 0.758 | 0.651 | 0.935 | 0.909 | 0.587 | 0.736 | 0.851 | 0.702 | 0.636 | 1.26
26 | 0.537 | 0.764 | 0.527 | LTNDRYVATLT [IL6ST_Y396_L397V] | 0.622 | 0.808 | 0.434 | 0.82 | 0.394 | 0.683 | 0.69 | 0.576 | 0.607 | 0.72 | 0.619 | 0.408 | 0.791
27 | 8.46 | 0.71 | 1.41 | LTYHMYADPNI [SOS1_Y618_F623I] | 3.73 | 2.03 | 3.47 | 3.13 | 4.78 | 2.56 | 9.95 | 6.07 | 5.79 | 6.28 | 4.27 | 1.23 | 1.59
28 | 1.98 | 0.778 | 0.459 | LVKDPYVMFPQ [PLEKHG2_Y489_P484L] | 0.997 | 1.79 | 0.943 | 3.42 | 2.48 | 1.45 | 3.86 | 4.32 | 0.91 | 0.608 | 7.45 | 1.12 | 1.93
29 | 0.543 | 0.968 | 0.844 | LVPAWYIGFLC [KCNQ2_Y237_T234P] | 0.361 | 1.1 | 0.804 | 0.812 | 0.516 | 1.25 | 0.51 | 0.487 | 0.599 | 0.625 | 0.502 | 0.56 | 1.28
30 | 0.538 | 0.771 | 0.787 | LVPPRYARSEI [PKP2_Y194] | 0.528 | 0.495 | 0.345 | 0.941 | 0.783 | 1.26 | 0.394 | 0.631 | 0.597 | 0.72 | 0.74 | 0.697 | 1.34
31 | 0.37 | 0.732 | 0.765 | LVTCSYLLGNS [LMNA_Y646_R644C] | 0.99 | 2.94 | 1.95 | 1.72 | 0.803 | 2.16 | 1.3 | 0.756 | 1.14 | 1.56 | 0.76 | 0.959 | 3.29
32 | 0.535 | 0.924 | 0.665 | LWPIWYSCHRP [MRGPRX1_Y130_R131S] | 0.687 | 1.27 | 0.943 | 1.04 | 0.601 | 1.82 | 0.601 | 0.519 | 0.83 | 0.694 | 0.643 | 0.881 | 1.97
33 | 1.35 | 0.856 | 0.97 | MALDRYVAICK [OR2B11_Y127] | 0.411 | 0.665 | 0.863 | 0.604 | 0.51 | 0.762 | 0.454 | 0.464 | 0.581 | 0.575 | 0.508 | 0.499 | 0.838
